What was measured:
Assay in all cases: cryo-EM structure
[1] = target: ribosomal protein S3e (rabbit 40S subunit) (rabbit, UniProt G1TNM3 1-243)
[2] = target: ribosomal protein S10e (rabbit 40S subunit) (rabbit, UniProt G1T168 1-165)
[3] = target: ribosomal protein S12e (rabbit 40S subunit) (rabbit, UniProt G1SFR8 1-132)
[4] = target: ribosomal protein S23e (rabbit 40S subunit) (rabbit, UniProt G1SZ47 1-143)

- binding result [1]: binds
- binding result [2]: binds
- binding result [3]: binds
- binding result [4]: binds
B1: DHX29, recombinant human (enzyme)
chain: MGGKNKKHKAPAAAVVRAAVSASRAKSAEAGIAGEAQSKKPVSRPATAAAAAAGSREPRVKQGPKIYSFNSTNDSSGPANLDKSILKVVINNKLEQRIIGVINEHKKQNNDKGMISGRLTAKKLQDLYMALQAFSFKTKDIEDAMTNTLLYGGDLHSALDWLCLNLSDDALPEGFSQEFEEQQPKSRPKFQSPQIQATISPPLQPKTKTYEEDPKSKPKKEEKNMEVNMKEWILRYAEQQNEEEKNENSKSLEEEEKFDPNERYLHLAAKLLDAKEQAATFKLEKNKQGQKEAQEKIRKFQREMETLEDHPVFNPAMKISHQQNERKKPPVATEGESALNFNLFEKSAAATEEEKDKKKEPHDVRNFDYTARSWTGKSPKQFLIDWVRKNLPKSPNPSFEKVPVGRYWKCRVRVIKSEDDVLVVCPTILTEDGMQAQHLGATLALYRLVKGQSVHQLLPPTYRDVWLEWSDAEKKREELNKMETNKPRDLFIAKLLNKLKQQQQQQQQHSENKRENSEDPEESWENLVSDEDFSALSLESANVEDLEPVRNLFRKLQSTPKYQKLLKERQQLPVFKHRDSIVETLKRHRVVVVAGETGSGKSTQVPHFLLEDLLLNEWEASKCNIVCTQPRRISAVSLANRVCDELGCENGPGGRNSLCGYQIRMESRACESTRLLYCTTGVLLRKLQEDGLLSNVSHVIVDEVHERSVQSDFLLIILKEILQKRSDLHLILMSATVDSEKFSTYFTHCPILRISGRSYPVEVFHLEDIIEETGFVLEKDSEYCQKFLEEEEEVTINVTSKAGGIKKYQEYIPVQTGAHADLNPFYQKYSSRTQHAILYMNPHKINLDLILELLAYLDKSPQFRNIEGAVLIFLPGLAHIQQLYDLLSNDRRFYSERYKVIALHSILSTQDQAAAFTLPPPGVRKIVLATNIAETGITIPDVVFVIDTGRTKENKYHESSQMSSLVETFVSKASALQRQGRAGRVRDGFCFRMYTRERFEGFMDYSVPEILRVPLEELCLHIMKCNLGSPEDFLSKALDPPQLQVISNAMNLLRKIGACELNEPKLTPLGQHLAALPVNVKIGKMLIFGAIFGCLDPVATLAAVMTEKSPFTTPIGRKDEADLAKSALAMADSDHLTIYNAYLGWKKARQEGGYRSEITYCRRNFLNRTSLLTLEDVKQELIKLVKAAGFSSSTTSTSWEGNRASQTLSFQEIALLKAVLVAGLYDNVGKIIYTKSVDVTEKLACIVETAQGKAQVHPSSVNRDLQTHGWLLYQEKIRYARVYLRETTLITPFPVLLFGGDIEVQHRERLLSIDGWIYFQAPVKIAVIFKQLRVLIDSVLRKKLENPKMSLENDKILQIITELIKTENN
